Key:
[1] = target: T1, peptide comprising amino acid residues Val-227 to Asn-242 of SEQ ID NO:2 (human); test: epitope mapping with peptides
T1 peptide: VTLFRCIQNMPETLPN

[2] = target: T2, membrane-bound form of Neutrokine-alpha (human, UniProt Q9Y275 1-285); test: summary of Example 10
T2 construct: Endogenous type II membrane protein on THP-1 cells, monocytes and myeloid cell lines; also called Neutrokine-alpha on the surface of THP-1 cells; cell surface Neutrokine-alpha

[3] = target: T3, soluble form of Neutrokine-alpha (amino acids 134 to 285 of SEQ ID NO:2) (human, UniProt Q9Y275 134-285); test: summary of Example 10
T3 construct: also called rNeutrokine-alpha; soluble Neutrokine-alpha
T3 sequence (Q9Y275 134-285): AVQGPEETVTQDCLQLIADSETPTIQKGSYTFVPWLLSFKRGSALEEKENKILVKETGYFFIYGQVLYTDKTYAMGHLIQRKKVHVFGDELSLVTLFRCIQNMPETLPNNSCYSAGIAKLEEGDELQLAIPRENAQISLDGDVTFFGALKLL

Measured: binding result

T2 sequence (Q9Y275 whole entry): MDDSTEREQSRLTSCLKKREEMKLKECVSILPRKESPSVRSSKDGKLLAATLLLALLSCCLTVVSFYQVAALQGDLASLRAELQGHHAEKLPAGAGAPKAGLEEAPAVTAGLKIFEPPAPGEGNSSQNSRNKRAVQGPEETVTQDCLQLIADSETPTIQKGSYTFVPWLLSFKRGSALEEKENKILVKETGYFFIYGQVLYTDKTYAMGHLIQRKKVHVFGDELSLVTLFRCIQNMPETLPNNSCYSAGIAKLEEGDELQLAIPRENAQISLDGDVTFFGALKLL

B1: 15C10 (antibody, human IgG1, V domains shown)
VH: QVQLQQSGAELARPGASVKMSCRASGYTFTTYTMHWVKQRPGQGLEWIGYIIPRNTYTTFNQKFKNKATLTADKSSNTAYMQLSSLTSEDSAVYYCARHYGGGYWFFDVWGAGTTVTVSS
VL: ELVMTQTPASLAVSLGQRATISCRGSESVDSYGNSFMHWYQQKPGQPPKLLIYRASNLESGIPARFSGSGSRTDFTLTIYPVEADDVATYYCQQSNDDPMYTFGGGTKLEIKR
notes: Murine monoclonal antibody; hybridoma ATCC PTA-1158; A chimeric form with human IgG1/kappa was deposited as ATCC PTA-3794; also called anti-Neutrokine-alpha antibody 15C10
binds: all assays above

Source: patent US20090221008A1 (Human Genome Sciences, published 2009)
